Consider one variant from IntAct's records for PubMed 26258632.

To fix the notation:
B1: Mitotic spindle assembly checkpoint protein MAD1 (Homo sapiens), Q9Y6D9 (parent)
chain: MEDLGENTMVLSTLRSLNNFISQRVEGGSGLDISTSAPGSLQMQYQQSMQLEERAEQIRSKSHLIQVEREKMQMELSHKRARVELERAASTSARNYEREVDRNQELLTRIRQLQEREAGAEEKMQEQLERNRQCQQNLDAASKRLREKEDSLAQAGETINALKGRISELQWSVMDQEMRVKRLESEKQELQEQLDLQHKKCQEANQKIQELQASQEARADHEQQIKDLEQKLSLQEQDAAIVKNMKSELVRLPRLERELKQLREESAHLREMRETNGLLQEELEGLQRKLGRQEKMQETLVGLELENERLLAKLQSWERLDQTMGLSIRTPEDLSRFVVELQQRELALKDKNSAVTSSARGLEKARQQLQEELRQVSGQLLEERKKRETHEALARRLQKRVLLLTKERDGMRAILGSYDSELTPAEYSPQLTRRMREAEDMVQKVHSHSAEMEAQLSQALEELGGQKQRADMLEMELKMLKSQSSSAEQSFLFSREEADTLRLKVEELEGERSRLEEEKRMLEAQLERRALQGDYDQSRTKVLHMSLNPTSVARQRLREDHSQLQAECERLRGLLRAMERGGTVPADLEAAAASLPSSKEVAELKKQVESAELKNQRLKEVFQTKIQEFRKACYTLTGYQIDITTENQYRLTSLYAEHPGDCLIFKATSPSGSKMQLLETEFSHTVGELIEVHLRRQDSIPAFLSSLTLELFSRQTVA

Variants of B1 are the subject of the first experiment. The conditions noted are these: with cenpe_human CENPE.
Regarding L17A;N18A;N19A;F20A;I21A, the “effect of a mutation on the interaction” value is “disrupting interaction strength”.

Variants of B1 are the subject of a further experiment. The conditions noted are these: with cenpe_human CENPE. The source holds these as a separate data set.
In the case of L17A;N18A;N19A;F20A;I21A, the “effect of a mutation on the interaction” value is reported as “decreasing interaction strength”.
